Results as given in article PMC4666614, “Identification of New Regions in HIV-1 gp120 Variable 2 and 3 Loops that Bind to α4β7 Integrin Receptor” (PLoS ONE, 2015).

Target: α4β7 integrin receptor on RPMI8866 cells (human (endogenous in RPMI8866)) (UniProt P13612)
Sequence (P13612 34-1032, chain 1 of 2): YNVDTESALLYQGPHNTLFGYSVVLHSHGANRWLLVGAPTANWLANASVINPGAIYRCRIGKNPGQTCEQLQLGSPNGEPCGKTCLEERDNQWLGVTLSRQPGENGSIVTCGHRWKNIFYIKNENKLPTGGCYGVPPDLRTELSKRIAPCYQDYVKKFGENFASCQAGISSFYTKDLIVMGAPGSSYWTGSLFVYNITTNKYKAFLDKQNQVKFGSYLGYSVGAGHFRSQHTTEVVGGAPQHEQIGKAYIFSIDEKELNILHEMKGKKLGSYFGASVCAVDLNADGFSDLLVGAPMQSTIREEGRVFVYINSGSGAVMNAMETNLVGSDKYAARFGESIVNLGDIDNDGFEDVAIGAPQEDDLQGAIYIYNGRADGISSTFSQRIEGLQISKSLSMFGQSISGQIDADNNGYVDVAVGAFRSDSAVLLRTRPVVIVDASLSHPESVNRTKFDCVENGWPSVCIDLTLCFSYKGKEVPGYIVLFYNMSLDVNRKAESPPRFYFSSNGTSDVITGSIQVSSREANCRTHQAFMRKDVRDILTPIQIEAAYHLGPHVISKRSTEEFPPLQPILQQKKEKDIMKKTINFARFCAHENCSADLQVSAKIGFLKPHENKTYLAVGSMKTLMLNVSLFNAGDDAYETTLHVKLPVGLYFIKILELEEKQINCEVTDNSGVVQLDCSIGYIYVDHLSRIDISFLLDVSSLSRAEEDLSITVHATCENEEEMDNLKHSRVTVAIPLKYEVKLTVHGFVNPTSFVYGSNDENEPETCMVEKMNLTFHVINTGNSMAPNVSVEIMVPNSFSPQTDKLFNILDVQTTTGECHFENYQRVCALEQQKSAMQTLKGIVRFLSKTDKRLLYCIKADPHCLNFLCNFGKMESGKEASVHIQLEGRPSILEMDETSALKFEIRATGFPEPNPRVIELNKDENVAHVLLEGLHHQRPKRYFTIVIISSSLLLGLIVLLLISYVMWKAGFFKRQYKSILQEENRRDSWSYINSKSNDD
Sequence (P26010 20-798, chain 2 of 2, further chain): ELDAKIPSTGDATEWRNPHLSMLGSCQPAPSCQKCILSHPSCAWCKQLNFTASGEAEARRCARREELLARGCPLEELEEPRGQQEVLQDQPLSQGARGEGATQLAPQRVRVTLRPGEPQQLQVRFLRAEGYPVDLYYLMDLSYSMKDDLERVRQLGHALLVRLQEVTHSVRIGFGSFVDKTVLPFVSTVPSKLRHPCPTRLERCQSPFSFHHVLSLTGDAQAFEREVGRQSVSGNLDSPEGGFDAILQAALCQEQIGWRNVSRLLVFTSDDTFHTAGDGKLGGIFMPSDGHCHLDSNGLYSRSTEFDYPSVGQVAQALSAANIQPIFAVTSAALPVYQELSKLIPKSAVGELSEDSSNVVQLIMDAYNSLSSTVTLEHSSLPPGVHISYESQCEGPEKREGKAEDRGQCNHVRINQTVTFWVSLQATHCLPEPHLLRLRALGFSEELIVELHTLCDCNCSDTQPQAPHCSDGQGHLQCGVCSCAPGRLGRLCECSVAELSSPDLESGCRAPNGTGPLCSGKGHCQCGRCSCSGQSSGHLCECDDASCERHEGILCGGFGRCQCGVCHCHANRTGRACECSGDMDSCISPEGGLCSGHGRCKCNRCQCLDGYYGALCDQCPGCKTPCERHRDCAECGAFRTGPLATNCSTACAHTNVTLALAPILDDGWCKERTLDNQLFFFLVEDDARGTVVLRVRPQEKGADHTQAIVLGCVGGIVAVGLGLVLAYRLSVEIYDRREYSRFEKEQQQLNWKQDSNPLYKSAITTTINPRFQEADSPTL

## HIV-1 envelope protein on 92TH023 virions (primary virus, subtype CRF01_AE) (natural protein)
  % inhibition of α4β7 binding to MAdCAM-1 at p24 0.75–3 ng/well: 25 to 35%
